Drawing on article PMC7080818, this text covers mono-ubiquitination of co-transfected HA-TRIM25 (western blot, densitometry), percent mono-ubiquitinated TRIM25 and inhibition of IRF3 nuclear translocation in RIG-I-2CARD positive HeLa cells for one substance.

In experiment [1] the target is 3xFLAG-HCMV-UL48, N-terminal catalytic domain of the HCMV large tegument protein (human cytomegalovirus (HCMV)) (UniProt P16785).
Experiment [2] concerns the target 3xFLAG-KSHV-ORF64, N-terminal catalytic domain of the KSHV large tegument protein (Kaposi Sarcoma herpesvirus (KSHV)) (UniProt Q2HR64).
Experiment [3] addresses 3xFLAG-BPLF1 (amino acid residues 1-235), N-terminal catalytic domain of the EBV large tegument protein (Epstein-Barr virus (EBV)) (UniProt P03186).
Sequence of UniProt P03186 (P03186 1-235): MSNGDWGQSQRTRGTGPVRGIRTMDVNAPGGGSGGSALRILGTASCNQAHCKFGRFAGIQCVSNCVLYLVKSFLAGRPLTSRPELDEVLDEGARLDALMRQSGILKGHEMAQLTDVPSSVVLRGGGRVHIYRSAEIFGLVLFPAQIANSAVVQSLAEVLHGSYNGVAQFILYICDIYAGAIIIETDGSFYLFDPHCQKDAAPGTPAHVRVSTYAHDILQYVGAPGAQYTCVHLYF

Sequence of UniProt P16785 (P16785 1-300): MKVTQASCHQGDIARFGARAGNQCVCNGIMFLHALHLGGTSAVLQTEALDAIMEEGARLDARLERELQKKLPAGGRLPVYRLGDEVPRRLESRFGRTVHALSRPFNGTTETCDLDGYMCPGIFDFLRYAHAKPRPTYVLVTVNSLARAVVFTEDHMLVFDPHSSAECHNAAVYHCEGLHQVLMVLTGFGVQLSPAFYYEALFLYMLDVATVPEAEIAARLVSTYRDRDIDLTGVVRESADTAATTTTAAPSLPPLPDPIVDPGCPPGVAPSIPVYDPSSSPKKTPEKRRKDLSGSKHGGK
Sequence of UniProt Q2HR64 (Q2HR64 1-300): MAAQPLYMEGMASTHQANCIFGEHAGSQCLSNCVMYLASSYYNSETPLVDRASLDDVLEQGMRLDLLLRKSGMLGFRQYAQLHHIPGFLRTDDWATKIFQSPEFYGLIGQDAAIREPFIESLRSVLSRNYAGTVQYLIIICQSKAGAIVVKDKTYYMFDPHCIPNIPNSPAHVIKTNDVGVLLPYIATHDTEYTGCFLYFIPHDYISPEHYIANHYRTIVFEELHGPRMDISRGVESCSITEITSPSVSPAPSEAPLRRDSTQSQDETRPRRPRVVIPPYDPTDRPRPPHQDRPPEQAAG

In the case of “14-3-3 molecular scaffold (endogenous, detected with a pan 14-3-3 antibody) (from UniProt P63104 1-245) (natural protein)”, the mono-ubiquitination of co-transfected HA-TRIM25 (western blot, densitometry), percent mono-ubiquitinated TRIM25 in experiment [1] and in experiment [2] was more than 70% each time. This substance also registered an inhibition of IRF3 nuclear translocation in RIG-I-2CARD positive HeLa cells in experiment [3] of more than 50%.
